For 19 molecules, PRNT IC50 results are on record in US20240327502A1.

To fix the notation:
B1: M4C02 (antibody, V domains shown)
VH: QLQLQESGPRLVKPSETLSLTCSVSGGSISSSSLYWGWIRQSPGKGLEWIGTIYYGGSSDYNPSLKSRLTMSVDTSKNHFSLRLSSVTAADTAVYYCARVGSPVTTTVWFDPWGQGTLVTVSS
VL: DIQMTQSPSSLAASIGDRVTITCRASQTISTYLNWYQQKPGKAPKLLIYAASTLQSGVPSRFSGSGSGTDFTLTISSLQPEDFATYYCQQTYSSLALTFGGGTKVEIR
B2: M2E06 (antibody, V domains shown)
VH: EVQLVESGGDLVQPGGSLRLSCEASAFTFSDYAMTWVRQAPGKGLEWVSSINTSGGRTYYADSVKGRFTISRDNSKNTLYLQMKSLRAEDTAVYFCARFFYVMDVWGQGTTVTVSS
VL: AIQMTQSPSSLSASVGDRVTITCRASQGVRNDLGWYQQKPGKAPKLLINAASGLQSGVPSRFSGSGSDTDFTLTISSLQPEDFATYYCLQVYSYPFTFGPGTKVDIK
B3: M2D10 (antibody, V domains shown)
VH: QVQLVQSGAEVKKPGASVRISCKPSGRAFLTYDINWVRQAPGQGLEWMAGMNPGSGNAAYAPKFQGRLTMIRNTSISTDYLELSSLTSEDTAVYYCARGEVSMRWRWLDPWGQGSLVTVTS
VL: DIQMTQSPSSLSASVGDRVTITCRASQTISNFLNWYQQKPGRAPKVLIYAALNLQSGVPSRFRGSGSGTDFTLTINNLQPEDFAIYYCQQSYITPWTFGQGTKVEIK
B4: M4A12 (antibody, V domains shown)
VH: QLQESGSGPGLVKPSETLSLICNASGDSVTRNAYYWGWLRQPPGKGLEWIGIMYYSGSTFYNPSLKSRLTISVDTSKNQFSLKLRSVTAADTATYYCGEATLTTYDAFDVWGHGTMVTVSS
VL: QSVLTQPPSVSAAPGQRVTISCSGGNSNIGKNYVSWYQQVPGTAPKLLIYENNKRPSGIPDRFSGSKSGTSATLGITGLQTGDEADYYCGAWDSSLNGVLFGGGTRLTVL
B5: M4A08 (antibody, V domains shown)
VH: EVQLVESGGALVRPGGSLRVSCEASGFNFRTHWMHWVRQAPGKGLVWVARTNGDGSVTNYADSVKGRFTFFRDNAKNTLFLQMTSLRVDDTAVYYCARERLDYSSTRGHFPGDFDSWGQGTLVTVSS
VL: DIVMTQSPDSLAVSLGERATINCKSSESVLYTSNSKNYLAWYQQKPGHPPKVLIYWASTRESGVPDRFSGSGSGTDFSLSISSLQAEDVAVYYCQQYFTIPRTFGQGTKVEIK
B6: M1A12 (antibody, V domains shown)
VH: QVQLVQSGTEVKKPGSSVKVSCKDPGDIMSSHSIHWVRQAPGQGPEWMGRIIPLFGMKSYAPNFQGRVSISVDTSTNTAYLELSGLKSDDTAVYFCAREENLSWLDYWGQGTQVIVSS
VL: EIVLTQSPATLSLSPGDRATLSCRASLRLSTNIAWYQQKPGQAPRLVIYDASKRATGIPARFSGSGSGTDFTLTISSLEPEDFAVYYCHQHSNWYTFGQGTKLEIK
B7: M3D09 (antibody, V domains shown)
VH: QVQLVESGGGVVQSGKSLGLSCIASGFIFSNYALHWVRQAPGKGLEWLSVISYDGTNKYYANSVRGRFTVSRDNSKNTLFLHMNSLGVDDTAMYYCARDPERLADLGRMDFWGRGTLVAVLS
VL: DIVMTQSPDSLAVSLGERATINCKSSQSVLFSPNNKNYLAWYQQKPGQPPKLLIYWASTREYGVPERFSGSGSGTDFTLTISSLQAEDVAVYYCQQYNSNPYTFGQGTKLEIR
B8: M1A01 (antibody, V domains shown)
VH: QVQLVQSGAEVKKPGSSVKVSCWASGGTFDNAINWLRQAPGQGPEWMGRIIPLVDIVNRAPKFQDRVSFTADKSTNTVYMVLNSLTSDDTAVYYCASAFQDGWFDPWGQGTLVTVSS
VL: EIVLTQSPATLSLSPGERATLSCRASQSLSRYLAWYQQKPGQAPRLLIYDASNRATGVPARFSGSGSGTDFTLTISSLEPEDFAVYYCHQRHNWITFGQGTRLEIK
B9: M4B04 (antibody, V domains shown)
VH: QVQLVESGGGVVQPGKSLRLSCAASGFTFRSYTMFWVRQAPGKGLEWVAIILHDGTNRYYTDSVKGRFTISRDNTKNTVYLQMNSLRPEDTAMYYCARESLEWMLDWGQGTLVTVSS
VL: EIVMTQSPATLSVSPGERATLSCRASQSLSGNLAWFQQKPGQAPRLLIYGTSTRATGIPARFSGSGSGTEFTLTISSLQSEDFAVYYCQQYNNWPPVFTFGPGTKVDIK
B10: M2A09 (antibody, V domains shown)
VH: QVQLVQSGAGVRKPGSSVKVSCKASGGTFSNYIISWVRQAPGQGLEYIGRIIPIVGMEKYEEKFQGRVKITADESTSTVSMELTSLKSEDTATYYCATEGLESGYPPYLEHWGRGTLVIVSS
VL: EIVLTQSPGTLSLSPGERATLSCRTSQTVGAHLAWYQQKPGQSPRLLIYGASSRATGIPDRFSGSGSGTVFTLTINRLEPEDLAVYYCQQYGASPPTFGQGTKVEIK
B11: M6E10 (antibody, V domains shown)
VH: QVQLVQSGAEVKKPGSSVKVSCNASGGIFDTNVINWVRQAPGQGLEWMGGIIPPFGTALYAHQFQGRLTLTVDESTNTAYMDLSSLRSDDTAVYFCARDRTVIKYADGMDVWGQGTTVTVSS
VL: DIQMTQSPSSLSASVGDKVAITCRASQTISPYLNWYQQKPGKAPNLLIYGTNKLQSGVPLRFSGSGSGTDFTLTINGLQPEDFATYFCQQSHTTPLTFGGGTKVEIKR
B12: M3C07 (antibody, V domains shown)
VH: QLQLQESGPGLVKPWETLSLTCIVSGGSISRSTHYWGWIRQSPEMGLEWIGSIYYTGNTYYNPSFKSRVTISVDTSRNQLSLRVNSVSAADTARYYCARHETYDYGVFNIWGQGAMVTVSA
VL: EIVLTQSPGTLSLSPGERAILSCRASQTVSSDYLAWYQQRPGQAPRLLIYDASSRATGVPDRFRGSGSGTDFTLTISRLEPEDFGVYYCQQYGSPYTFGQGTKLEIK
B13: M4B01 (antibody, V domains shown)
VH: EVQLLESGGGLVQPGGSLRLSCAASGFNFNTYAMSWVRQAPGKGLKWISTISGSGGVKYYADSVKGRFTISRDNSGSILYLQMNRLRADDTAVYYCAKSQNPQLVFFDSFDMWGQGSMVTVSS
VL: QSVLTQAPSASAAPGQKVTISCSGSTSNIGNSYVSWYQQVPGTAPKLLIYEDNQRPSGIPDRFSGSKSGTSATLGITGLQTGDEADYYCGTWDNSLTEVVFGGGTKLTVL
B14: M3D12 (antibody, V domains shown)
VH: QVQLQESGPGLVKPSQTLSLTCTVSGASVSSEYYYWSWIRQPPGKGLEWIGYIYHNGDTYYNPSLKGRGIISMDTSKNQFSLKLISVTAADTAVYYCARLAVAGVTGFHYWGLGTLVTVSS
VL: EIVLTQSPDTLSLSPGERATLSCRASRSVRNYLAWYQQKPGQAPRLLIYDASNRAPGIPARFSGSGSETDFTLTISSLEPEDFAVYYCQQRSNWGLTFGGGTKVEIK
B15: M1C11 (antibody, V domains shown)
VH: QVQLVQSGAEMKKPGSSVKVSCKTSGGSFSSYPVSWVRQAPGQGPEWMGGIIPLSGTTHYAQMFQGRVSITADDSTRTVFMELTSLRSGDTAVYYCARSGAPTYYYDSSGFHGGAFHFWGQGTVVTVSS
VL: DIVMTQSPDSLAVSLGERATINCKSSQSVLYSSNSKSYLAWYQQKPGQPPKLLIYWASSRESGVPDRFSGSGSGTDFTLTISSLQAEDVAVYYCQQFYTSPHTFGQGTKLEIKR
B16: M3D06 (antibody, V domains shown)
VH: EVQLVESGGGLVQPGGSLRLSCAASGFPFNFYWMHWVRQAPREGLVWVSRINNDGSSPNYADSVWGRFTISRDNAKNTLYLQMHSLRAEDTAVYYCARAARFGDYVDQWGQGTLVTVSS
VL: AIQLTQSPSSLSASMGDRVTITCRASQGISSAFAWYQQKPGKAPKLLIYDASTLESGVPSRFSGSGSGTDFTLTISSLQPEDFATYYCQQFNSYPLTFGGGTKVEIK
B17: M3E03 (antibody, V domains shown)
VH: QVQLVESGGGVVQPGRSLRLSCVASGFPFDSFAMHWVRQAPGKGLEWVAIVWYDGGDKFYSESVKGRFSISRDNSRNTVFLQMNSLRAEDTAVYYCARGMITFDYWGPGTLVTVSS
VL: EIVLTQSPGTLSLSPGERATLSCRASQNVDSSYLAWYQQKPGQAPRLLMYGASTRVAGIPDRFSGSGSGTDFTLTISRLEPEDFVVYYCQQYGTSPTWTFGQGTKVEIK
B18: M2B07 (antibody, V domains shown)
VH: EVQLVESGGGLVRPGGSLRLSCAASGFTFNNYWMHWVRQAPGKGLVWVSHVKSDGSITNYADSVKGRFTISRDNAKNTLYLEMSSLRVEDTAVYYCARESRPYDPLTGSHPDAFDIWGQGTMVTVSS
VL: DIVMTQSPDSLAVSLGERATINCKSSESIFYYSNSKSYLAWYRQKPGQPPKLLIYWASTRESGVPDRFSGSGSGTDFTLTISSLQPEDVAVYYCQQYYTNPRTFGQGTRLEIK
B19: M2D07 (antibody, V domains shown)
VH: QVQLVESGGAVVQPGRSLRLSCAASGFTFTSFSMHWVRQAPGRGLEWVAVISHDGIIKYYADSVKGRFTISRDNSKNTVFLQMNSLRPEDTAVFYCARDFPGSRGFFRYYFDHWGQGTLVTVSS
VL: DIQMTQSPSSLSASVGGSVTITCRVDQSISNDLHWYQQKPGKAPKLLISSASSLQSGVPSRFSGSGSGTDFTLTITSLQPEDFATYYCQQSYTTPPLFGQGTTLEIK

Substrate in one experiment: F protein of hMPV A virus (human metapneumovirus subtype A)
Kind of experiment: cell-based or functional assay.
As to B1, the PRNT IC50 came out at 577 ng/mL.

Turning to B2, the PRNT IC50 stood at 105 ng/mL.

Turning to B3, the PRNT IC50 was 759 ng/mL.

For B4, the PRNT IC50 is more than 10000 ng/mL.

For the molecule B5, the PRNT IC50 was determined as 136 ng/mL.

In the case of B6, the PRNT IC50 stood at 1510 ng/mL.

In the case of B7, the PRNT IC50 was 2000 ng/mL.

Take B8: the PRNT IC50 amounted to 3410 ng/mL.

In the case of B9, the PRNT IC50 was determined as 4590 ng/mL.

In the case of B10, the PRNT IC50 was found to be 13.3 ng/mL.

For B11, the PRNT IC50 was found to be 23.7 ng/mL.

In the case of B12, the PRNT IC50 is more than 10000 ng/mL.

Turning to B13, the PRNT IC50 was determined as 37.1 ng/mL.

As for B14, the PRNT IC50 is 23.1 ng/mL.

For B15, the PRNT IC50 was determined as 5920 ng/mL.

Take B16: the PRNT IC50 is more than 10000 ng/mL.

As to B17, the PRNT IC50 came out at 19.9 ng/mL.

B18: the PRNT IC50 was 625 ng/mL.

For B19, the PRNT IC50 came out at 1070 ng/mL.

Substrate in another experiment: F protein of hMPV B virus (human metapneumovirus subtype B)
Briefly: cell-based or functional assay.
With B1, the PRNT IC50 turned out to be 173 ng/mL.

Turning to B2, the PRNT IC50 was found to be 139 ng/mL.

Turning to B3, the PRNT IC50 was determined as 1340 ng/mL.

In the case of B4, the PRNT IC50 came to 74.4 ng/mL.

With B5, the PRNT IC50 stood at 344 ng/mL.

B6: the PRNT IC50 was found to be 5000 ng/mL.

As for B7, the PRNT IC50 amounted to 280 ng/mL.

As for B8, the PRNT IC50 was determined as 4000 ng/mL.

For B9, the PRNT IC50 was 1970 ng/mL.

On to B10, for which the PRNT IC50 turned out to be 45.6 ng/mL.

For B11, the PRNT IC50 is 10.4 ng/mL.

As for B12, the PRNT IC50 was more than 10000 ng/mL.

Consider B13, for which the PRNT IC50 was 62.8 ng/mL.

For the molecule B14, the PRNT IC50 was determined as 14.5 ng/mL.

Turning to B15, the PRNT IC50 is 444 ng/mL.

Turning to B16, the PRNT IC50 was more than 10000 ng/mL.

With B17, the PRNT IC50 was 76.2 ng/mL.

Regarding B18, the PRNT IC50 is 426 ng/mL.

For the molecule B19, the PRNT IC50 was determined as 2500 ng/mL.
